{"source": "patent US9605038B2", "about": "“Fusion peptide comprising dhFas-1 domain and MMP substrate and use thereof for preventing and treating rheumatoid arthritis” (Kyungpook National University Industry-Academic Cooperation …, priority 2010, dated 2017)", "molecules": {"B1": {"name": "HsFJ24: fusion peptide having sequential links of hsdhFas-1, MMP1 substrate GPQGIAG (SEQ ID NO: 6), and QERGDSLA (SEQ ID NO: 10) (protein)", "chain": "RALPPRERSRLLGDAKELANILKYHIGDEILVSGGIGALVRLKSLQGDKLEVSLKNNVVSVNKEPVAEPDIMEFGPQGIAGVDGQERGDSLAGLE", "modifications": "hsFJ24"}, "B2": {"name": "HsFJ25: fusion peptide having sequential links of hsdhFas-1, MMP consensus substrate GPLGIAG (SEQ ID NO: 7), and QERGDSLA (SEQ ID NO: 10) (protein)", "chain": "RALPPRERSRLLGDAKELANILKYHIGDEILVSGGIGALVRLKSLQGDKLEVSLKNNVVSVNKEPVAEPDIMEFGPLGIAGVDGQERGDSLAGLE", "modifications": "hsFj25"}, "B3": {"name": "hsdhFas-1: peptide prepared by removing H1 and H2 regions from the fourth fas-1 domain of human βig-h3 (protein)", "chain": "RALPPRERSRLLGDAKELANILKYHIGDEILVSGGIGALVRLKSLQGDKLEVSLKNNVVSVNKEPVAEPDIM", "modifications": "hsdhFas-1", "notes": "peptide prepared by removing H1 and H2 regions from the fourth fas-1 domain of human βig-h3"}, "B4": {"name": "HsFJ27: fusion peptide having sequential links of hsdhFas-1, MMP3 substrate GPLGLWARG (SEQ ID NO: 8), and QERGDSLA (SEQ ID NO: 10) (protein)", "chain": "MALFVRLLALALALALGPAATLARSFRALPPRERSRLLGDAKELANILKYHIGDEILVSGGIGALVRLKSLQGDKLEVSLKNNVVSVNKEPVAEPDIMEFGPLGLWARGVDQERGDSLAGLE", "modifications": "hsFJ27"}, "B5": {"name": "MFK12: a peptide having mdhFas-1 (as a basic structure) linked to an RGDSP (SEQ ID NO: 9) peptide (protein)", "chain": "QAMPPEELNKLLANAKELTNILKYHIGDEILVSGGIGALVRLKSLQGDKLEVSSKNNVVSVNKEPVAETDIMEFGGRGDSPDDDDDLE", "modifications": "MFK12"}}, "key": {"[1]": {"system": "human fibroblast-like synovicyte (FLS)", "test": "βig-h3-mediated cell adhesion test, FLS", "type": "cell-based", "protocol": "(§1) βig-h3 was introduced into a 96-well plate at a concentration of 5 ug/ml, and coated for 14 hours at 4° C. In DMEM+0.5% BSA (Bovine Serum Albumin) culture medium, human fibroblast-like synovicyte (FLS) was introduced, and HsFJ24, HsFJ25 or HsFJ27 at concentrations was injected thereto, followed by mixing. The resultant mixture was cultured at 37° C. for 30 minutes, and plated on a coated well. It was cultured for 2 hours, and washed with PBS (phosphate buffered saline) so as to remove unattached cells, and then added with a substrate (4-Nitrophenyl N-acetyl-β-D-glucosaminide, Sigma, U.S.) to be activated by β-N-acetylglucosaminidase within the cell, followed by culturing at 37° C. for 1 hour. Then, a glycine EDTA solution (0.5M EDTA, 50 mM glycine, pH 10.4) was added thereto, and the coloring extent according to the number of attached cells was measured by absorbance."}, "[2]": {"system": "human fibroblast (NIH3T3)", "test": "Cell adhesion test on human βig-h3 coated plate (hsdhFas-1)", "type": "cell-based", "details": "human βig-h3 5 ug/ml coat, FIG. 3", "protocol": "as §1, with “Human βig-h3” for “βig-h3”, “fibroblast (NIH3T3)” for “fibroblast-like synovicyte (FLS)”, “hsdhFas-1 peptide” for “HsFJ24, HsFJ25 or HsFJ27”"}, "NIH3T3": {"system": "NIH3T3", "test": "βig-h3-mediated cell migration test (transwell), NIH3T3", "type": "cell-based, mouse", "details": "7 hours", "protocol": "In the lower compartment of a transwell filter having an 8 um hole size allowing cells to be migrated, βig-h3 was cultured at 4° C. for 12 to 14 hours and coated. In DMEM+0.5% BSA culture medium, NIH3T3 was introduced, and administered with MFK23, MFK24 or MFK25 at concentrations, followed by mixing. The resultant mixture was cultured at 37° C. for 30 minutes, inoculated into the upper chamber of the coated well, and cultured for 7 hours at 37° C. Then, the cells migrated to the lower compartment of the filter were fixed by paraformaldehyde, and strained by a crystal violet. The cells […] remaining in the upper chamber were wiped out and the number of cells migrated to the lower compartment was microscopically counted."}, "[3]": {"system": "foot tissue of CIA mouse (Synovial membrane, cartilage, bones; CD31, ICAM-1)", "test": "Histologic and immunohistochemistry test on foot tissue of CIA mouse", "type": "in vivo", "details": "CIA mouse, 50th day", "protocol": "In order to determine the action mechanism of an arthritis therapeutic effect in a CIA model, on the 50th day following the second injection of the bovine type 2 collagen (after 4 weeks from the onset (the 23rd day) of arthritis following the second injection of the bovine type 2 collagen), foot tissues of treatment groups were separated and subjected to histologic analysis. Then, in the tissues, a change in the expression of inflammatory mediators was examined.\nA tissue sample was prepared by the following process. Skin on the foot tissue was removed. Then, the tissue was fixed in 10% formalin solution for 2 days, and demineralized in 10% EDTA solution. The demineralized tissue was subjected to a dehydrating process and a clearing process, paraffin-embedded, and was made into a fragment with a thickness of 3 um by a microtome. The tissue fragment was deparaffinized and re-dehydrated by 100% xylene and ethanol, and then non-specific peroxidase within the tissue was blocked by a solution of 0.3% hydrogen peroxide dissolved in 100% methanol.\nIn order to carry out an immunohistochemistry test, binding of non-specific protein was blocked by 5% BSA. Then, the tissue was cultured, together with each primary antibody (as endothelial cell markers, an antibody to CD31, and an antibody to ICAM-1 (intercellular adhesion molecule-1)), at 4° C. for 12 to 14 hours, and washed with washing buffer (0.1% BSA, 0.2% gelatin, 0.05% saponin). It was cultured together with a secondary antibody labeled with biotin at room temperature for 30 minutes, was washed, reacted with Vectastatin ABC kit (Vector Laboratories, U.S.), and was mounted with Eukitt mounting media (Fluka, Germany) for observation."}, "ICAM-1 and RANKL": {"system": "ICAM-1 and RANKL", "test": "Immunoblot of ICAM-1 and RANKL in CIA mouse model", "type": "in vivo", "details": "30 mg/kg, FIG. 27"}, "[4]": {"system": "mouse fibroblast (NIH3T3)", "test": "βig-h3-mediated cell adhesion test, NIH3T3", "type": "cell-based", "details": "NIH3T3, βig-h3 5 ug/ml coat", "protocol": "as §1, with “Human βig-h3” for “βig-h3”, “fibroblast (NIH3T3)” for “fibroblast-like synovicyte (FLS)”, “hsdhFas-1 peptide” for “HsFJ24, HsFJ25 or HsFJ27”\nAlso, a structurally modified peptide of a fas-1 domain of mouse βig-h3 was synthesized as a recombinant peptide (hereinafter, referred to as ‘mdhFas-1peptide’, see FIG. 2), and a mouse cell line, that is, NIH3T3 cell line, was used to test the inhibiting effect by mdhFas-1 peptide on adhesion and migration of a Synovial membrane cell in the same manner as that in the test using human βig-h3.\nas §1, with “mouse fibroblast (NIH3T3)” for “human fibroblast-like synovicyte (FLS)”, “MFK23, MFK24, MFK25” for “HsFJ24, HsFJ25”, “MFK27” for “HsFJ27”"}, "[5]": {"system": "collagen-induced arthritis (CIA) mouse model", "test": "Arthritis therapeutic effect in CIA mouse (clinical arthritis index)", "type": "in vivo", "protocol": "A CIA mouse model having the similar characteristic to that of human rheumatoid arthritis was prepared according to the description in a known literature (Protocol for the successful induction of collagen-induced arthritis (CIA) and collagen antibody-induced arthritis (CAIA) in mice. Chondrex, Redmond, Wash.): Bovine type 2 collagen 100 ug was mixed with Freund's complete adjuvant, and hypodermically inoculated into the tail of the mouse. After 3 weeks, bovine type 2 collagen 100 ug was mixed with Freund's incomplete adjuvant, and inoculated again into the tail of the mouse. Then, the mouse was used in the experiment.\nIn order to find out the therapeutic effect of arthritis in a CIA model, for four weeks from the onset (the 23rd day) of arthritis following the second injection of the bovine type 2 collagen, MFK23 or MFK24 was daily injected into the abdominal cavity in doses of 0.1 mg/kg, 1 mg/kg, 10 mg/kg and 30 mg/kg. As a control group, the same amount of PBS was injected into the abdominal cavity. From the 23rd day to the 50th day, by using a Clinical arthritis index, the severity of arthritis was daily determined. The determination was based on the following data.\n0; no symptom, 1; edema in one articulation or light edema, 2; severe edema in 2 or more articulations, 3; severe edema in most articulations, 4; severe edema in the whole of legs."}, "[6]": {"test": "Toxicity test in CIA mouse (weight, serologic test, blood test)", "details": "CIA mouse, 22nd day vs 48th day", "procedure": "On the 48th day, a serologic test and a blood test were carried out."}, "[7]": {"system": "TNF-a, RANKL, IL-1β, CCL-2, MMP-1, MMP-3, IL-6, VCAM-1", "test": "Semiquantitative reverse transcription PCR of inflammatory mediators in CIA mouse foot tissue", "type": "in vivo", "details": "CIA mouse, 30 mg/kg, FIG. 26", "protocol": "The distribution of inflammation in the foot tissue may be somewhat differently observed according to the regions, and its quantitative research is difficult. Thus, in the hind leg of a mouse CIA model treated with MFK24, the change in inflammatory mediators according to the onset of arthritis was measured by a semiquantitative reverse transcription PCR method using a Taqman probe, as described below.\nFrom a mouse CIA model, a foot tissue was separated, and its skin was removed. The remaining tissue was grinded by a tissue homogenizer, and an extraction reagent (Easy-spim™, Intron) was used to extract all RNAs. They were quantified, and for 7 μg of RNA, a reverse transcriptase reaction was carried out by using AMV reverse transcriptase (Roche, 0.5 ul), oligo dT (Roche, 1 ul), and 10 mM dNTP (Takara, 2 ul) RNase inhibitor (Roche, 0.1 ul). For TNF-a, RANKL, IL-1β, CCL-2, MMP-1, MMP-3, IL-6, VCAM-1 and 18S RNA of a mouse, semiquantitative PCR was performed by using primers (Bioneer, Daejeon) and a Taqman probe (Roche, Germany) in LC480 (Roche, Germany), so as to determine the number of transcripts. Quantitative analysis of the transcripts was performed through comparison with 18S RNA transcripts. The primer pairs for the semiquantitative PCR are noted in [table8]."}}, "note": "“Also recorded” adds a separate entry of the source.", "data": [{"molecule": "B1", "values": [{"measurement": "βig-h3-mediated adhesion of FLS", "setting": "[1]", "value": "concentration-dependently inhibited"}]}, {"molecule": "B2", "values": [{"measurement": "βig-h3-mediated adhesion of FLS", "setting": "[1]", "value": "concentration-dependently inhibited"}]}, {"molecule": "B3", "values": [{"measurement": "βig-h3-mediated adhesion", "setting": "[2]", "value": "concentration-dependently inhibited"}, {"measurement": "βig-h3-mediated cell migration", "setting": "NIH3T3", "value": "concentration-dependently inhibited"}]}, {"molecule": "B4", "values": [{"measurement": "βig-h3-mediated adhesion of FLS", "setting": "[1]", "value": "concentration-dependently inhibited"}]}, {"molecule": "B5", "values": [{"measurement": "proliferation of Synovial membrane tissue cells", "setting": "[3]; 10 mg/kg", "value": "hyper-proliferated"}, {"measurement": "state of the articulation region", "setting": "[3]; 10 mg/kg", "value": "the articulation region was destroyed"}, {"measurement": "vascularization induction and cell adhesion protein expression (CD31, ICAM-1)", "setting": "[3]; 10 mg/kg", "value": "increased as much as that in the control group"}, {"measurement": "proliferation of Synovial membrane tissue cells", "setting": "[3]; 30 mg/kg", "value": "inhibited compared to that in the control group"}, {"measurement": "shape of the foot tissue", "setting": "[3]; 30 mg/kg", "value": "nearly normal"}, {"measurement": "vascularization induction and adhesion protein expression (CD31, ICAM-1)", "setting": "[3]; 30 mg/kg", "value": "reduced"}, {"measurement": "expression levels of ICAM-1 and RANKL vs arthritis control group", "setting": "ICAM-1 and RANKL", "value": "reduced levels"}, {"measurement": "βig-h3-mediated cell adhesion", "setting": "[4]", "value": "inhibited the adhesion and migration of a cell even at a lower concentration than that in Comparative Example 1; also recorded: concentration-dependently inhibited"}, {"measurement": "arthritis inhibition (clinical arthritis index)", "setting": "[5]; 10 mg/kg daily", "value": "about 27%"}, {"measurement": "arthritis inhibition (clinical arthritis index)", "setting": "[5]; 30 mg/kg daily", "value": "about 60%"}, {"measurement": "arthritis inhibiting effect (clinical arthritis index), in words", "setting": "[5]; daily into the abdominal cavity", "value": "concentration-dependently inhibited"}, {"measurement": "body weight change compared to control group", "setting": "[6]", "value": "abnormal findings in the weight change were not observed"}, {"measurement": "βig-h3-mediated cell migration", "setting": "NIH3T3", "value": "inhibited the adhesion and migration of a cell even at a lower concentration than that in Comparative Example 1; also recorded: concentration-dependently inhibited"}, {"measurement": "expression levels of TNF-a, IL-6, IL-1β, ICAM-1, and RANKL vs arthritis control group", "setting": "[7]", "value": "reduced levels"}]}]}
